Reference: US20220048967A1 (published 2022)
Numbered stars: 1 amine (or outer) side, 2 acyl side, 3 side chain; on linkers, the order of the positions; unused ones are H or OH. Square brackets hold non-standard residues; d marks the D form. Side chains are listed from the residue outwards. Ends that are not written are not given here. * marks the point of attachment. C18 diacid = O=C(O)CCCCCCCCCCCCCCCCC(=O)*; γGlu = O=C(O)[C@H](CCC(=O)[*:2])N[*:1]; AEEA = NCCOCCOCC(=O)O; Aib = CC(C)(N)C(=O)O

T1: human gastric inhibitory peptide receptor (GIPR) (human, UniProt P48546 22-466)
T1 sequence (looked up): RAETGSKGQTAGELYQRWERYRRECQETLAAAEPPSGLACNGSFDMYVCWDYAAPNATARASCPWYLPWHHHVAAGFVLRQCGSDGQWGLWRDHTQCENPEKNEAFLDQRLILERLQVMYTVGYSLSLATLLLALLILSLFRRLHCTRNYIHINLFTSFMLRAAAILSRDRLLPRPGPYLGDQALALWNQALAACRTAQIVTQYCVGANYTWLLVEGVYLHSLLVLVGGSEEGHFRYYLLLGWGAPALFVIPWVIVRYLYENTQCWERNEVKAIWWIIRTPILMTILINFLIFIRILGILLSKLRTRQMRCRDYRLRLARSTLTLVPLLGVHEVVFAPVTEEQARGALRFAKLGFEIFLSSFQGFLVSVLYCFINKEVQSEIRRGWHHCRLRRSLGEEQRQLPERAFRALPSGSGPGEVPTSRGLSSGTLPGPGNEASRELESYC


Legend:
[1] = molecular target: T1, human gastric inhibitory peptide …; test: cell-based or functional assay
[2] = molecular target: human GLP-1 receptor (GLP-1R) (human, UniProt P43220 24-463); test: cell-based or functional assay

hGIPR cAMP EC50 ratio [1] | hGIPR cAMP Rel EC50 [1] | hGLP1R cAMP EC50 ratio [2] | hGLP1R cAMP Rel EC50 [2] | Binder
< 0.00741 | > 30 nM | 0.00353 | 14.5 nM | Y[Aib]EGTFTSDYSILLDKK([AEEA-AEEA-γGlu-C18 diacid])AQPAFIEYLIEGGPSSG-NH2 (N-terminus assumed; SMILES CC[C@H](C)[C@H](NC(=O)[C@H](CC(C)C)NC(=O)[C@H](Cc1ccc(O)cc1)NC(=O)[C@H](CCC(=O)O)NC(=O)[C@@H](NC(=O)[C@H](Cc1ccccc1)NC(=O)[C@H](C)NC(=O)[C@@H]1CCCN1C(=O)[C@H](CCC(N)=O)NC(=O)[C@H](C)NC(=O)[C@H](CCCCNC(=O)COCCOCCNC(=O)COCCOCCNC(=O)CC[C@H](NC(=O)CCCCCCCCCCCCCCCCC(=O)O)C(=O)O)NC(=O)[C@H](CCCCN)NC(=O)[C@H](CC(=O)O)NC(=O)[C@H](CC(C)C)NC(=O)[C@H](CC(C)C)NC(=O)[C@@H](NC(=O)[C@H](CO)NC(=O)[C@H](Cc1ccc(O)cc1)NC(=O)[C@H](CC(=O)O)NC(=O)[C@H](CO)NC(=O)[C@@H](NC(=O)[C@H](Cc1ccccc1)NC(=O)[C@@H](NC(=O)CNC(=O)[C@H](CCC(=O)O)NC(=O)C(C)(C)NC(=O)[C@@H](N)Cc1ccc(O)cc1)[C@@H](C)O)[C@@H](C)O)[C@@H](C)CC)[C@@H](C)CC)C(=O)N[C@@H](CCC(=O)O)C(=O)NCC(=O)NCC(=O)N1CCC[C@H]1C(=O)N[C@@H](CO)C(=O)N[C@@H](CO)C(=O)NCC(N)=O) [Example 274]
2.15 | 0.079 nM | 1.85 | 0.0352 nM | Y[Aib]EGTFTSDYSILLDKK([AEEA-AEEA-γGlu-C18 diacid])AQ[Aib]AFIEYLIAGG-NH2 (N-terminus assumed; SMILES CC[C@H](C)[C@H](NC(=O)[C@H](CC(C)C)NC(=O)[C@H](Cc1ccc(O)cc1)NC(=O)[C@H](CCC(=O)O)NC(=O)[C@@H](NC(=O)[C@H](Cc1ccccc1)NC(=O)[C@H](C)NC(=O)C(C)(C)NC(=O)[C@H](CCC(N)=O)NC(=O)[C@H](C)NC(=O)[C@H](CCCCNC(=O)COCCOCCNC(=O)COCCOCCNC(=O)CC[C@H](NC(=O)CCCCCCCCCCCCCCCCC(=O)O)C(=O)O)NC(=O)[C@H](CCCCN)NC(=O)[C@H](CC(=O)O)NC(=O)[C@H](CC(C)C)NC(=O)[C@H](CC(C)C)NC(=O)[C@@H](NC(=O)[C@H](CO)NC(=O)[C@H](Cc1ccc(O)cc1)NC(=O)[C@H](CC(=O)O)NC(=O)[C@H](CO)NC(=O)[C@@H](NC(=O)[C@H](Cc1ccccc1)NC(=O)[C@@H](NC(=O)CNC(=O)[C@H](CCC(=O)O)NC(=O)C(C)(C)NC(=O)[C@@H](N)Cc1ccc(O)cc1)[C@@H](C)O)[C@@H](C)O)[C@@H](C)CC)[C@@H](C)CC)C(=O)N[C@@H](C)C(=O)NCC(=O)NCC(N)=O) [Example 273]
< 0.00741 | > 30 nM | 0.00357 | 14 nM | Y[Aib]EGTFTSDYSILLDKK([AEEA-AEEA-γGlu-C18 diacid])AQPAFIEYLIEGG-NH2 (N-terminus assumed; SMILES CC[C@H](C)[C@H](NC(=O)[C@H](CC(C)C)NC(=O)[C@H](Cc1ccc(O)cc1)NC(=O)[C@H](CCC(=O)O)NC(=O)[C@@H](NC(=O)[C@H](Cc1ccccc1)NC(=O)[C@H](C)NC(=O)[C@@H]1CCCN1C(=O)[C@H](CCC(N)=O)NC(=O)[C@H](C)NC(=O)[C@H](CCCCNC(=O)COCCOCCNC(=O)COCCOCCNC(=O)CC[C@H](NC(=O)CCCCCCCCCCCCCCCCC(=O)O)C(=O)O)NC(=O)[C@H](CCCCN)NC(=O)[C@H](CC(=O)O)NC(=O)[C@H](CC(C)C)NC(=O)[C@H](CC(C)C)NC(=O)[C@@H](NC(=O)[C@H](CO)NC(=O)[C@H](Cc1ccc(O)cc1)NC(=O)[C@H](CC(=O)O)NC(=O)[C@H](CO)NC(=O)[C@@H](NC(=O)[C@H](Cc1ccccc1)NC(=O)[C@@H](NC(=O)CNC(=O)[C@H](CCC(=O)O)NC(=O)C(C)(C)NC(=O)[C@@H](N)Cc1ccc(O)cc1)[C@@H](C)O)[C@@H](C)O)[C@@H](C)CC)[C@@H](C)CC)C(=O)N[C@@H](CCC(=O)O)C(=O)NCC(=O)NCC(N)=O) [Example 275]
0.614 | 0.334 nM | 1.35 | 0.0352 nM | Y[Aib]EGTFTSDYSILLDKK([AEEA-AEEA-γGlu-C18 diacid])AQ[Aib]EFIEYLIEGG-NH2 (N-terminus assumed; SMILES CC[C@H](C)[C@H](NC(=O)[C@H](CC(C)C)NC(=O)[C@H](Cc1ccc(O)cc1)NC(=O)[C@H](CCC(=O)O)NC(=O)[C@@H](NC(=O)[C@H](Cc1ccccc1)NC(=O)[C@H](CCC(=O)O)NC(=O)C(C)(C)NC(=O)[C@H](CCC(N)=O)NC(=O)[C@H](C)NC(=O)[C@H](CCCCNC(=O)COCCOCCNC(=O)COCCOCCNC(=O)CC[C@H](NC(=O)CCCCCCCCCCCCCCCCC(=O)O)C(=O)O)NC(=O)[C@H](CCCCN)NC(=O)[C@H](CC(=O)O)NC(=O)[C@H](CC(C)C)NC(=O)[C@H](CC(C)C)NC(=O)[C@@H](NC(=O)[C@H](CO)NC(=O)[C@H](Cc1ccc(O)cc1)NC(=O)[C@H](CC(=O)O)NC(=O)[C@H](CO)NC(=O)[C@@H](NC(=O)[C@H](Cc1ccccc1)NC(=O)[C@@H](NC(=O)CNC(=O)[C@H](CCC(=O)O)NC(=O)C(C)(C)NC(=O)[C@@H](N)Cc1ccc(O)cc1)[C@@H](C)O)[C@@H](C)O)[C@@H](C)CC)[C@@H](C)CC)C(=O)N[C@@H](CCC(=O)O)C(=O)NCC(=O)NCC(N)=O) [Example 271]
2.97 | 0.0464 nM | 1.19 | 0.0435 nM | Y[Aib]EGTFTSDYSILLDKK([AEEA-AEEA-γGlu-C18 diacid])AQ[Aib]AFIEYLIAGGPSSG-NH2 (N-terminus assumed; SMILES CC[C@H](C)[C@H](NC(=O)[C@H](CC(C)C)NC(=O)[C@H](Cc1ccc(O)cc1)NC(=O)[C@H](CCC(=O)O)NC(=O)[C@@H](NC(=O)[C@H](Cc1ccccc1)NC(=O)[C@H](C)NC(=O)C(C)(C)NC(=O)[C@H](CCC(N)=O)NC(=O)[C@H](C)NC(=O)[C@H](CCCCNC(=O)COCCOCCNC(=O)COCCOCCNC(=O)CC[C@H](NC(=O)CCCCCCCCCCCCCCCCC(=O)O)C(=O)O)NC(=O)[C@H](CCCCN)NC(=O)[C@H](CC(=O)O)NC(=O)[C@H](CC(C)C)NC(=O)[C@H](CC(C)C)NC(=O)[C@@H](NC(=O)[C@H](CO)NC(=O)[C@H](Cc1ccc(O)cc1)NC(=O)[C@H](CC(=O)O)NC(=O)[C@H](CO)NC(=O)[C@@H](NC(=O)[C@H](Cc1ccccc1)NC(=O)[C@@H](NC(=O)CNC(=O)[C@H](CCC(=O)O)NC(=O)C(C)(C)NC(=O)[C@@H](N)Cc1ccc(O)cc1)[C@@H](C)O)[C@@H](C)O)[C@@H](C)CC)[C@@H](C)CC)C(=O)N[C@@H](C)C(=O)NCC(=O)NCC(=O)N1CCC[C@H]1C(=O)N[C@@H](CO)C(=O)N[C@@H](CO)C(=O)NCC(N)=O) [Example 272]
